Laboratory results from the supplement of paper PMC9170038.

Test system: MS2 coat protein
Assay: apparent KD of MS2 coat protein; designed switch direction (-1 OFF switch, 1 ON switch): 1; higher = weaker reporter binding
Outline: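 On Illumina chips, designed RNA switches with common flanks were made by stalled E. coli RNA polymerase. Titrations with SNAP-549-labelled MS2 coat protein, doubling from 0.7 or 1.5 nM to 3 µM, were done with no input, with 200 uM small-molecule ligand, or with an oligonucleotide input. Apparent KD is the median per design over clusters, from curve fits of normalised cluster fluorescence.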

[1] = Eterna round: R95, input ligand: FMN 200 uM
[2] = Eterna round: R95, input ligand: microRNA oligo, concentration not stated
[3] = Eterna round: R95, input ligand: none
[4] = input ligand: microRNA oligo, concentration not stated

Sequence | apparent KD of MS2 coat protein [1] [nM] | apparent KD of MS2 coat protein [2] [nM] | apparent KD of MS2 coat protein [3] [nM] | apparent KD of MS2 coat protein (input ligand: FMN 200 uM) [nM] | apparent KD of MS2 coat protein [4] [nM] | apparent KD of MS2 coat protein (input ligand: none) [nM]
AGUCCAGCAUAAGCUGGACAAAAGCAUGUACAUGAGGAUCACCCAUGUUCAUGUACAAGCUUUUUGCAAGUCAAAAU [Mat - hsa-mir-208a - Mod of JL - 82] (puzzle: Sensor for hsa-mir-208a) | 374 | 18 | 734 | – | – | –
AAACAUGAGGAUCACCCAUGUCGAUCAGAACUCUGAUCUGCUCAGGAUAUCCGAAUGCGCGUUUCGGAGAAGGGAGAAAUGUGA [Lareraedqu] (Eterna round: R96, puzzle: Same State NG 3) | – | – | – | 69.8 | 36.4 | 53.2
GCUGCAAGGGCAGGAUAUGGGUCCAAAGCGCAAGUGCGCUUUGGUACAUGAGGAUCACCCAUGUCCCAGAAGGGCCCAAACAGC [Bientierqu] (Eterna round: R96, puzzle: Same State NG 2) | – | – | – | 15.5 | 87.2 | 121
ACAUGAGACUAAGGAUAUGGUGUACCUACAUGUGACAUGAGGAUCACCCAUGUGGUAAGUAUGACUCAGAAGGUAGAGAUAUGU [Equivalance 75 - Jieux - Same State NG 2] (Eterna round: R96, puzzle: Same State NG 2) | – | – | – | 37.9 | 280 | 436
GCACAUGAGGAUCACCCAUGUGCGCUUGGUUGUCCAAGCGCACAGGAUAUACCUCCCAAUGGGAGGUAGAAGGGUGAAAAGAAA [Orraveceat] (Eterna round: R96, puzzle: Same State NG 3) | – | – | – | 12.4 | 10.9 | 16
AGCUAGUACGAAGGAUAUACAAACAUGAGGAUCACCCAUGUAUACAUGGUUUGAUGAGACUACAUGUAGAAGGUCGUACUAGCA [SameState NG2 #14] (Eterna round: R96, puzzle: Same State NG 2) | – | – | – | – | 176 | –
UACAAUCUAUCUGAGGAUAUCAUGAAGAAAACAUGAGGAUCACCCAUGUGCAGGAUAACUGCAAAUGAGAAGGCAGAUAGAUUGG [Mat - Same State 2 - Mod - D4] (puzzle: Same State 2) | 12.9 | 17 | 24.6 | – | – | –
AACAAUCUAUCUGAGGAUAUCAUGAAAAAAACAUGAGGAUCACCCAUGUGCAGGAAAACUGCAUAUGAGAAGGCAGAUAGAUUGC [salish99_SS2_r3_004] (Eterna round: R96, puzzle: Same State 2) | – | – | – | – | 504 | –
AGUCCAGCCUGAGCUGGACAAAAGCAUGUACAUGAGGAUCACCCAUGUUCAUGUACAAGCUUUUUGCUCGUCUUGAA [salish99_208a_r3_095x] (Eterna round: R96, puzzle: Sensor for hsa-mir-208a) | – | – | – | 646 | 16.1 | 572
GGUGCAAUAAACGCCUACAUGAGGAUCACCCAUGUAUGUAGGCAGGAUAUCGUAUGCAAAGCAUACGAGAAGGGCUGUAGUACC [Mat - Same State NG 3 - JL Mod - D42] (Eterna round: R96, puzzle: Same State NG 3) | – | – | – | 53.7 | 116 | 118
GUGCGGCUGCCACAGGAUAUACGUGGAUCGACAUGAGGAUCACCCAUGUAUAUCCUAAUAAUUGCGUAGAAGGGUGGUCAGCCGG [Anzaenenes] (puzzle: Same State 2) | 143 | 608 | 825 | – | – | –
ACAUGAGAAUUAGGAUAUAUAGUACCUACAUGUGACAUGAGGAUCACCCAUGUGGUAAGUAUGACAUAGAAGGAAUAGAUAUGU [Equivalance 97 - Jieux - Same State NG 2] (Eterna round: R96, puzzle: Same State NG 2) | – | – | – | 66.5 | 42.9 | 56.8
AAUAAAGUCAGUAAGGAUAUCCAAAUGGCGACAUGAGGAUCACCCAUGUAAGAAACCCGACAUCGGGAGAAGGUACAUGACGAUG [Enlaorle] (puzzle: Same State 2) | 87.9 | 124 | 127 | – | – | –
AAGAAAGACGCAGGAUAUCAGCGCAAACCGCACUGAGAAGGGUGAGACAUGAGGAUCACCCAUGUAACACGGCAAAACGCCGUG [Lausgeledi] (Eterna round: R96, puzzle: Same State NG 1) | – | – | – | 1530 | 268 | 219
UACAAUCUAUCUGAGGAUAUCAUGAAAAAAACAUGAGGAUCACCCAUGUGCAGGAAAACUGCAUAUGAGAAGGCAGAUAGAUUGC [salish99_SS2_r3_008] (puzzle: Same State 2) | 34.1 | 806 | 1320 | – | – | –
GGUCGGACAUGAGGAUCACCCAUGUGGUGACCGGAAACGGCAUAGGAUAUCUGUCCGAAAAGGUCAGAGAAGGGUGAACCGACC [Fiskers NG3ss - 69] (Eterna round: R96, puzzle: Same State NG 3) | – | – | – | 160 | 15.5 | 126
UGUUGUAUUACAGGAUAUCUAUUAUUGUUAUUUAGAGAAGGGUAUUCACAUGAGGAUCACCCAUGUAUAUACGAGGAAGUUGUG [JMF's solution 18] (Eterna round: R96, puzzle: Same State NG 1) | – | – | – | – | 39.9 | –
GUAAUCGUUAUAGGAUAUCAUGAGGAUUACCCAUGAGAAGGGUGAUUCCGAUCCAUAUUCAGAAAAUGAAUGUGGAUAGAUUGC [Omei NG1 A v1] (Eterna round: R96, puzzle: Same State NG 1) | – | – | – | 123 | 117 | 260
CGACACACGGCAGGAUAUGCUUAGCAAAGCUAAGCAGAAGGGCCUCAUGUCGUGGAAACCUGACAUGAGGAUCACCCAUGUCGG [Omei SS(NG)1 Cv3] (Eterna round: R96, puzzle: Same State NG 1) | – | – | – | 23.8 | 11.6 | 37.6
UUUCUACAUGAGGAUCACCCAUGUCAACAAAGUCGAGGAUAUGGGCAUAUUAUCUUAUUUCCAGAAGGCGAUUUCU [salish99_ss1_r3_092] (puzzle: Same State 1) | – | 101 | – | – | – | –
AUUACUAACAUAGGAUAUCAUGCGAAAAUUGCGUGAGAAGGGUGGACGCUGUCAUUCUCGGAGGACAUGAGGAUCACCCAUGUC [SameState NG1 #71] (Eterna round: R96, puzzle: Same State NG 1) | – | – | – | 118 | 103 | 90.7
AUUAUGAAUGCAGGAUAUGAUUAACAUGAGGAUCACCCAUGUGGUGUUGUGAGUAAGGAGAGUGAUCAGAAGGGCAUUUUUUUU [JMF's solution 25] (Eterna round: R96, puzzle: Same State NG 2) | – | – | – | – | 465 | –
AAUUAUUAACAUGAGGAUCACCCAUGUAAAACAUGGAUUAACAAGCCUUUUCGUUUUUGCUCGUCUUAUAUUAUUAA [Bojan's Design] (puzzle: Sensor for hsa-mir-208a version 2) | 167 | – | 199 | – | – | –
AACAAUUAACAUGAGGAUCACCCAUGUAUUACUUCGUGUUUUUGCUCGUCUUAUGUUAGGUUCGAUAGAGCUUAACA [Improved] (puzzle: Sensor for hsa-mir-208a version 2) | 42.4 | 12.6 | 44.9 | – | – | –
